IntAct's records for PubMed 30126976

B1: Ribosomal protein S6 kinase alpha-1 (Homo sapiens), Q15418 (parent)
chain: MPLAQLKEPWPLMELVPLDPENGQTSGEEAGLQPSKDEGVLKEISITHHVKAGSEKADPSHFELLKVLGQGSFGKVFLVRKVTRPDSGHLYAMKVLKKATLKVRDRVRTKMERDILADVNHPFVVKLHYAFQTEGKLYLILDFLRGGDLFTRLSKEVMFTEEDVKFYLAELALGLDHLHSLGIIYRDLKPENILLDEEGHIKLTDFGLSKEAIDHEKKAYSFCGTVEYMAPEVVNRQGHSHSADWWSYGVLMFEMLTGSLPFQGKDRKETMTLILKAKLGMPQFLSTEAQSLLRALFKRNPANRLGSGPDGAEEIKRHVFYSTIDWNKLYRREIKPPFKPAVAQPDDTFYFDTEFTSRTPKDSPGIPPSAGAHQLFRGFSFVATGLMEDDGKPRAPQAPLHSVVQQLHGKNLVFSDGYVVKETIGVGSYSECKRCVHKATNMEYAVKVIDKSKRDPSEEIEILLRYGQHPNIITLKDVYDDGKHVYLVTELMRGGELLDKILRQKFFSEREASFVLHTIGKTVEYLHSQGVVHRDLKPSNILYVDESGNPECLRICDFGFAKQLRAENGLLMTPCYTANFVAPEVLKRQGYDEGCDIWSLGILLYTMLAGYTPFANGPSDTPEEILTRIGSGKFTLSGGNWNTVSETAKDLVSKMLHVDPHQRLTAKQVLQHPWVTQKDKLPQSQLSHQDLQLVKGAMAATYSALNSSKPTPQLKPIESSILAQRRVRKLPSTTL
B2: Corticotropin-releasing factor receptor 1 (Homo sapiens), P34998-1 (parent)
chain: MGGHPQLRLVKALLLLGLNPVSASLQDQHCESLSLASNISGLQCNASVDLIGTCWPRSPAGQLVVRPCPAFFYGVRYNTTNNGYRECLANGSWAARVNYSECQEILNEEKKSKVHYHVAVIINYLGHCISLVALLVAFVLFLRLRPGCTHWGDQADGALEVGAPWSGAPFQVRRSIRCLRNIIHWNLISAFILRNATWFVVQLTMSPEVHQSNVGWCRLVTAAYNYFHVTNFFWMFGEGCYLHTAIVLTYSTDRLRKWMFICIGWGVPFPIIVAWAIGKLYYDNEKCWFGKRPGVYTDYIYQGPMILVLLINFIFLFNIVRILMTKLRASTTSETIQYRKAVKATLVLLPLLGITYMLFFVNPGEDEVSRVVFIYFNSFLESFQGFFVSVFYCFLNSEVRSAIRKRWHRWQDKHSIRARVARAMSIPTSPTRVSFHSIKQSTAV
B3: Protein FAM163B (Homo sapiens), P0C2L3 (parent)
chain: MTAGTVVITGGILATVILLCIIAVLCYCRLQYYCCKKDESEEDEEEPDFAVHSHLPPLHSNRNLVLTNGPALYPTASTSFSQKSPQARALCRSCSHCEPPTFFLQEPPEEEEDVLNGGERVLYKSVSQEDVELPPGGFGGLQALNPNRLSAMREAFARSRSISTDV
B4: FERM and PDZ domain-containing protein 4 (Homo sapiens), Q14CM0 (parent)
chain: MDVFSFVKIAKLSSHRTKSSGWPPPSGTWGLSQVPPYGWEMTANRDGRDYFINHMTQAIPFDDPRLESCQIIPPAPRKVEMRRDPVLGFGFVAGSEKPVVVRSVTPGGPSEGKLIPGDQIVMINDEPVSAAPRERVIDLVRSCKESILLTVIQPYPSPKSAFISAAKKARLKSNPVKVRFSEEVIINGQVSETVKDNSLLFMPNVLKVYLENGQTKSFRFDCSTSIKDVILTLQEKLSIKGIEHFSLMLEQRTEGAGTKLLLLHEQETLTQVTQRPSSHKMRCLFRISFVPKDPIDLLRRDPVAFEYLYVQSCNDVVQERFGPELKYDIALRLAALQMYIATVTTKQTQKISLKYIEKEWGLETFLPSAVLQSMKEKNIKKALSHLVKANQNLVPPGKKLSALQAKVHYLKFLSDLRLYGGRVFKATLVQAEKRSEVTLLVGPRYGISHVINTKTNLVALLADFSHVNRIEMFSEEESLVRVELHVLDVKPITLLMESSDAMNLACLTAGYYRLLVDSRRSIFNMANKKNTATQETGPENKGKHNLLGPDWNCIPQMTTFIGEGEQEAQITYIDSKQKTVEITDSTMCPKEHRHLYIDNAYSSDGLNQQLSQPGEAPCEADYRSLAQRSLLTLSGPETLKKAQESPRGAKVSFIFGDFALDDGISPPTLGYETLLDEGPEMLEKQRNLYIGSANDMKGLDLTPEAEGIQFVENSVYANIGDVKSFQAAEGIEEPLLHDICYAENTDDAEDEDEVSCEEDLVVGEMNQPAILNLSGSSDDIIDLTSLPPPEGDDNEDDFLLRSLNMAIAAPPPGFRDSSDEEDSQSQAASFPEDKEKGSSLQNDEIPVSLIDAVPTSAEGKCEKGLDNAVVSTLGALEALSVSEEQQTSDNSGVAILRAYSPESSSDSGNETNSSEMTESSELATAQKQSENLSRMFLATHEGYHPLAEEQTEFPASKTPAGGLPPKSSHALAARPATDLPPKVVPSKQLLHSDHMEMEPETMETKSVTDYFSKLHMGSVAYSCTSKRKSKLADGEGKAPPNGNTTGKKQQGTKTAEMEEEASGKFGTVSSRDSQHLSTFNLERTAFRKDSQRWYVATEGGMAEKSGLEAATGKTFPRASGLGAREAEGKEEGAPDGETSDGSGLGQGDRFLTDVTCASSAKDLDNPEDADSSTCDHPSKLPEADESVARLCDYHLAKRMSSLQSEGHFSLQSSQGSSVDAGCGTGSSGSACATPVESPLCPSLGKHLIPDASGKGVNYIPSEERAPGLPNHGATFKELHPQTEGMCPRMTVPALHTAINTEPLFGTLRDGCHRLPKIKETTV

Variants of: B1
Settings: with scrib_human SCRIB
Target sequence in this assay (Q14160 whole entry): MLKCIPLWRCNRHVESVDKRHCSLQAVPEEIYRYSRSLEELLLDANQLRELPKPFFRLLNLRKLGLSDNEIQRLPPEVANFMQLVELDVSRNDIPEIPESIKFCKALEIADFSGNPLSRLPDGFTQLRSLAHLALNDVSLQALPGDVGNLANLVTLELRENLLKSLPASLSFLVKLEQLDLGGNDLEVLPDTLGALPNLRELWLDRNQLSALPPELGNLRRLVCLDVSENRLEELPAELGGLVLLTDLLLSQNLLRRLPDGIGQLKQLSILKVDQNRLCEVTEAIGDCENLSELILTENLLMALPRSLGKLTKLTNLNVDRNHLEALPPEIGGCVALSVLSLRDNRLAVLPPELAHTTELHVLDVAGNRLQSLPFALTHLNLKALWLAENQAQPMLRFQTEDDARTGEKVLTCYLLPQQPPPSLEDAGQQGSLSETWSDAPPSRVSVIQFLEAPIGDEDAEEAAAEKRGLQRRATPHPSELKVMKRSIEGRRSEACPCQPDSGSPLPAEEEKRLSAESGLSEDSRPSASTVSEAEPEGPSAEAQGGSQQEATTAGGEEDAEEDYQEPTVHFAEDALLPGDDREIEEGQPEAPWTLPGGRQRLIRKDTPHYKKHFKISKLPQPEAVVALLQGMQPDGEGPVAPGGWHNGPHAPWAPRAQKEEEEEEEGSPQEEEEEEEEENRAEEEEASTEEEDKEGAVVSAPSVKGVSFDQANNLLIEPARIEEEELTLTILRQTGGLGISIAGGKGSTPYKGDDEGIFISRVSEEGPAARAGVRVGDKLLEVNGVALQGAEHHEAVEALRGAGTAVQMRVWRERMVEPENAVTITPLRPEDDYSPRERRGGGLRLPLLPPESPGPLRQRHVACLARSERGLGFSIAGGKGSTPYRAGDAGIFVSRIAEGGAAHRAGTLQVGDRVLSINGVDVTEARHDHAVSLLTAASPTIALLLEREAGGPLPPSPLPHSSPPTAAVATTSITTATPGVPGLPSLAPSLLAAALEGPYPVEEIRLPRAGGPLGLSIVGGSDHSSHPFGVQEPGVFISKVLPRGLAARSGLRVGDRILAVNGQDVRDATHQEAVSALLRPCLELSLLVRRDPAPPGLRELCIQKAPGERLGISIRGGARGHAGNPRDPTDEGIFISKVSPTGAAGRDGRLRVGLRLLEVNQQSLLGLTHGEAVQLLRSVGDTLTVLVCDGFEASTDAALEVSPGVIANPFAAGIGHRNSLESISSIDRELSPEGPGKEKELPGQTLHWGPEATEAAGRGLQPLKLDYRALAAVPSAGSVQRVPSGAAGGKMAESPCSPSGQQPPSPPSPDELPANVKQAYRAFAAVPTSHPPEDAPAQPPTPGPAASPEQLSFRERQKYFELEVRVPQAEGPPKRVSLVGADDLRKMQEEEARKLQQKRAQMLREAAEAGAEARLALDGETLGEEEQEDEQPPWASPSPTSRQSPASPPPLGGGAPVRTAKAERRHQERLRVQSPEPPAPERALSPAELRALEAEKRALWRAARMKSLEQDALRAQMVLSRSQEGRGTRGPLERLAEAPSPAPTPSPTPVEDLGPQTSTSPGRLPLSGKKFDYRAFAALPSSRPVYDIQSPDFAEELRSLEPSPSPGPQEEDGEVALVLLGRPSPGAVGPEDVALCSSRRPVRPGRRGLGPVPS

| effect of a mutation on the interaction | Variant |
| --- | --- |
| increasing interaction strength | S732E;T734E |
| increasing interaction strength | S732E |

Variants of: B2
Settings: with scrib_human SCRIB
Target sequence in this assay (Q14160 whole entry): as above

| effect of a mutation on the interaction | Variant |
| --- | --- |
| with no effect | MGGHPQLRLVKALLLLGLNPVSASLQDQHCESLSLASNISGLQCNASVDLIGTCWPRSPAGQLVVRPCPAFFYGVRYNTTNNGYRECLANGSWAARVNYSECQEILNEEKKSKVHYHVAVIINYLGHCISLVALLVAFVLFLRLRPGCTHWGDQADGALEVGAPWSGAPFQVRRSIRCLRNIIHWNLISAFILRNATWFVVQLTMSPEVHQSNVGWCRLVTAAYNYFHVTNFFWMFGEGCYLHTAIVLTYSTDRLRKWMFICIGWGVPFPIIVAWAIGKLYYDNEKCWFGKRPGVYTDYIYQGPMILVLLINFIFLFNIVRILMTKLRASTTSETIQYRKAVKATLVLLPLLGITYMLFFVNPGEDEVSRVVFIYFNSFLESFQGFFVSVFYCFLNSEVRSAIRKRWHRWQDKHSIRARVARAMSIPTSPTRVSFHSIKQETAV [S441E] |

Variants of: B2
Settings: with dlg1_human DLG1, Q12959
Target sequence in this assay (Q12959 whole entry, looked up): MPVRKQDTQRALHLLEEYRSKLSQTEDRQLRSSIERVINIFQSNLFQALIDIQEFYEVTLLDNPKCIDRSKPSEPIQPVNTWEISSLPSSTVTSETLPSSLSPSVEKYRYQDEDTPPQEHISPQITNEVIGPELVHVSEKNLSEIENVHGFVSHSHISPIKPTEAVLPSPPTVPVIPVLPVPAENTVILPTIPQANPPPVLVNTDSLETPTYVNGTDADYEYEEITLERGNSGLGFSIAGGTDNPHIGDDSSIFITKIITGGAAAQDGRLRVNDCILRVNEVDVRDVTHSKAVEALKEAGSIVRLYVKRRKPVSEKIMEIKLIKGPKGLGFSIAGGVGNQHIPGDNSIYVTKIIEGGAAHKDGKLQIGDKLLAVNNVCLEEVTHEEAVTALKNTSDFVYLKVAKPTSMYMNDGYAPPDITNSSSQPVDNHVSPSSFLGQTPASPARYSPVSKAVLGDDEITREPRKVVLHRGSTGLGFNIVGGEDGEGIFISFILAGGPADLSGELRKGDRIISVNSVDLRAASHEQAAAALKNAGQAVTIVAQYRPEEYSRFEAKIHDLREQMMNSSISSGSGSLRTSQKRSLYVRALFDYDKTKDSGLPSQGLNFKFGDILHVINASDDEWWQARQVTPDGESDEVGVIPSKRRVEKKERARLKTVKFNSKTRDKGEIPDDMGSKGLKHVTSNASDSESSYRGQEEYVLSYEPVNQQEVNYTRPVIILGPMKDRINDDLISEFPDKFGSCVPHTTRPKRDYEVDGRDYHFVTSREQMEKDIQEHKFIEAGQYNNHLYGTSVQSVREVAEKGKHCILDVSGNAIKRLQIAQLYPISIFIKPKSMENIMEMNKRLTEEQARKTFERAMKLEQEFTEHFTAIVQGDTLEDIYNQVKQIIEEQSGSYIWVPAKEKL

| effect of a mutation on the interaction | Variant |
| --- | --- |
| increasing interaction strength | MGGHPQLRLVKALLLLGLNPVSASLQDQHCESLSLASNISGLQCNASVDLIGTCWPRSPAGQLVVRPCPAFFYGVRYNTTNNGYRECLANGSWAARVNYSECQEILNEEKKSKVHYHVAVIINYLGHCISLVALLVAFVLFLRLRPGCTHWGDQADGALEVGAPWSGAPFQVRRSIRCLRNIIHWNLISAFILRNATWFVVQLTMSPEVHQSNVGWCRLVTAAYNYFHVTNFFWMFGEGCYLHTAIVLTYSTDRLRKWMFICIGWGVPFPIIVAWAIGKLYYDNEKCWFGKRPGVYTDYIYQGPMILVLLINFIFLFNIVRILMTKLRASTTSETIQYRKAVKATLVLLPLLGITYMLFFVNPGEDEVSRVVFIYFNSFLESFQGFFVSVFYCFLNSEVRSAIRKRWHRWQDKHSIRARVARAMSIPTSPTRVSFHSIKQETAV [S441E] |
| increasing interaction strength | MGGHPQLRLVKALLLLGLNPVSASLQDQHCESLSLASNISGLQCNASVDLIGTCWPRSPAGQLVVRPCPAFFYGVRYNTTNNGYRECLANGSWAARVNYSECQEILNEEKKSKVHYHVAVIINYLGHCISLVALLVAFVLFLRLRPGCTHWGDQADGALEVGAPWSGAPFQVRRSIRCLRNIIHWNLISAFILRNATWFVVQLTMSPEVHQSNVGWCRLVTAAYNYFHVTNFFWMFGEGCYLHTAIVLTYSTDRLRKWMFICIGWGVPFPIIVAWAIGKLYYDNEKCWFGKRPGVYTDYIYQGPMILVLLINFIFLFNIVRILMTKLRASTTSETIQYRKAVKATLVLLPLLGITYMLFFVNPGEDEVSRVVFIYFNSFLESFQGFFVSVFYCFLNSEVRSAIRKRWHRWQDKHSIRARVARAMSIPTSPTRVSFHEIKQETAV [S437E;S441E] |

Variants of: B3
Settings: with scrib_human SCRIB
Target sequence in this assay (Q14160 whole entry): as the sequence (Q14160 whole entry) above

| effect of a mutation on the interaction | Variant |
| --- | --- |
| with no effect | MTAGTVVITGGILATVILLCIIAVLCYCRLQYYCCKKDESEEDEEEPDFAVHSHLPPLHSNRNLVLTNGPALYPTASTSFSQKSPQARALCRSCSHCEPPTFFLQEPPEEEEDVLNGGERVLYKSVSQEDVELPPGGFGGLQALNPNRLSAMREAFARSRSIETDV |

Variants of: B3
Settings: with scrib_human SCRIB
Remark: another data set of the same source
Target sequence in this assay (Q14160 whole entry): as the sequence (Q14160 whole entry) above

| effect of a mutation on the interaction | Variant |
| --- | --- |
| disrupting interaction strength | MTAGTVVITGGILATVILLCIIAVLCYCRLQYYCCKKDESEEDEEEPDFAVHSHLPPLHSNRNLVLTNGPALYPTASTSFSQKSPQARALCRSCSHCEPPTFFLQEPPEEEEDVLNGGERVLYKSVSQEDVELPPGGFGGLQALNPNRLSAMREAFARSRSISEDV |

Variants of: B3
Settings: with dlg1_human DLG1, Q12959
Target sequence in this assay (Q12959 whole entry, looked up): as the sequence (Q12959 whole entry, looked up) above

| effect of a mutation on the interaction | Variant |
| --- | --- |
| disrupting interaction strength | MTAGTVVITGGILATVILLCIIAVLCYCRLQYYCCKKDESEEDEEEPDFAVHSHLPPLHSNRNLVLTNGPALYPTASTSFSQKSPQARALCRSCSHCEPPTFFLQEPPEEEEDVLNGGERVLYKSVSQEDVELPPGGFGGLQALNPNRLSAMREAFARSRSISEDV |

Variants of: B4
Settings: with scrib_human SCRIB
Target sequence in this assay (Q14160 whole entry): as the sequence (Q14160 whole entry) above

| effect of a mutation on the interaction | Variant |
| --- | --- |
| disrupting interaction strength | T1320E |

Variants of: B4
Settings: with dlg1_human DLG1, Q12959
Target sequence in this assay (Q12959 whole entry, looked up): as the sequence (Q12959 whole entry, looked up) above

| effect of a mutation on the interaction | Variant |
| --- | --- |
| disrupting interaction strength | T1320E |
